In patent publication KR20230108156A (dated 2023):

Tests used:
[1] = target: CD40L on CD40L 표면발현 CHO 세포 (CHO cells expressing CD40L on the surface, ATCC) (UniProt P29965); assay: cell-based or functional assay
[2] = target: 재조합 인간 CD40L 단백질 (recombinant human CD40L protein, Sino biological, Accession#: NP_000065.1, Cat: 10239-H08E) (human) (UniProt P29965); assay: cell-based or functional assay
[3] = target: CD40L on CD40L 표면발현 CHO 세포 (CHO cells expressing CD40L on the surface, ATCC) (UniProt P29965); assay: flow cytometry on CD40L CHO cells, 0.01-0.5 μg/test
[4] = target: T1, CD40 on CD40 표면발현 CHO 세포 (CHO cells expressing CD40 on the surface, ATCC) (UniProt P25942 21-277, limits assumed); assay: flow cytometry on CD40 CHO cells, goat anti-mouse Ig-FITC
T1 construct: whole, on cells; also called CD40 CHO 세포

[5] = target: T2, CD40L in lysates of Jurkat cells and HeLaS3 cells (32 ~ 39 kDa band) (human, UniProt P29965 1-261); assay: western blot of Jurkat and HeLaS3 lysates, reducing and non-reducing, 14D6 0.5 μg/ml
T2 construct: Denatured protein on a PVDF membrane
T2 sequence (looked up): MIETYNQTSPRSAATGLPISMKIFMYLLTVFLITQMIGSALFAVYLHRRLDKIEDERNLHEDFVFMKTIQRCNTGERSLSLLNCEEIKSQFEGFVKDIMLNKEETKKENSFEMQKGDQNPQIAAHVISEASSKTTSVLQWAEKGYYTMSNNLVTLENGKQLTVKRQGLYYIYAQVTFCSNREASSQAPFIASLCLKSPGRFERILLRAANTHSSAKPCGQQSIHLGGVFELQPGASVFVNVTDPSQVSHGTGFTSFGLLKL

[6] = target: T3, CD40L induced on T cells of human PBMC stimulated with PMA and ionomycin (human, UniProt P29965 1-261); assay: flow cytometry on PMA/ionomycin-stimulated human PBMC, 0.1 μg, CD3-APC gate, anti-mouse Ig-FITC
T3 construct: whole, on cells
T3 sequence (looked up): T2 sequence (looked up)

[7] = target: CD40L-hFc 단백질 (Sino biological, Accession#: NP_000065.1, Cat: 10239-H01H) (human) (UniProt P29965); assay: competition, flow cytometry: 14D6 pre-mixed with CD40L-hFc (2 μg), binding to CD40 on Bjab cells read
[8] = target: 재조합 인간 CD40L 단백질 (recombinant human CD40L protein, Sino biological, Accession#: NP_000065.1, Cat: 10239-H08E) (human) (UniProt P29965); assay: ELISA, plate coated with recombinant human CD40L 100 ng/well, 14D6 two-fold dilutions from 1000 ng/ml, anti-mouse IgG-HRP

T1 sequence (P25942 21-277 limits assumed): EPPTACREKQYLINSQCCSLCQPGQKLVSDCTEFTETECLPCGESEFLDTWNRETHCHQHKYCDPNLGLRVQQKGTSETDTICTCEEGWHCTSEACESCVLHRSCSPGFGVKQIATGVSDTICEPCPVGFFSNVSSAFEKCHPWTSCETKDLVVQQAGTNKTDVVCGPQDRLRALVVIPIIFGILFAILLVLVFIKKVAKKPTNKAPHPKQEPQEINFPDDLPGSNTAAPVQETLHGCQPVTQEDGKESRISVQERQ

ICAM-1 expression on Ramos B cells co-cultured with CD40L CHO cells (flow cytometry) [1]: > 0.5 μg/test
antibody concentration for complete blocking of SEAP OD 655nm (HEK-Blue CD40L cells), CD40L 12.5ng/ml [2]: > 50 ng/mL
antibody concentration for complete blocking of SEAP OD 655nm (HEK-Blue CD40L cells), CD40L printed as 12.5ng/ml a second time (25ng/ml probably meant) [2]: > 500 ng/mL
amount at which binding is saturated [3]: > 0.1 µg
binding result [4]: no binding (tested: 0.05μg/test)
binding result [5]: binds
binding result [6]: binds
amount at which blocking equals the negative control [7]: > 0.1 µg
concentration at which binding is saturated [7]: > 0.1 μg/50μl
concentration at which binding is saturated [8]: > 100 ng/mL
B1: 14D6-52-5 단일클론항체 (14D6 단클론항체, mouse) (antibody, V domains shown)
VH: QVQLQQSGAELVKPGASVKLSCKASGYTFTRYYMFWVKQRPGQGLEWIGEINPTNGDTNFNEEFKSKATLTVDKSSSTAYMQLSSLTSEDSAVYYCTRPLGSRDAMDYWGPGTSVTVSS
VL: DIVLTQSPASLAVSLGQRATISCRASQSVSSSRYSYMHWYQQKPGQPPKLLIKYASSLESGVPARFSGSGSGTDFTLNIHPVEGEDTATYYCQHSWELPWTFGGGTKLEIK
notes: Mouse monoclonal antibody from a hybridoma (Balb/c mouse immunised with recombinant human CD40L); also called 14D6 마우스항체; Mouse 14D6
